In US20030124530 (Genelabs Technologies, Inc., published 2003):

How the values were obtained:
[1] = target: T1, UL9-COOH (C-terminal DNA-binding fragment of UL9) (Herpes simplex virus 1, UniProt P10193 P10193:535-851); assay: EMSA; flanks have little effect on off-rate; conditions: tags: GST fusion from pGEX-2T, thrombin-cleaved; E. coli JM109; bacterial extracts also used; label: 32P
[2] = target: T1, UL9-COOH (C-terminal DNA-binding …); assay: EMSA; flanks have little effect on off-rate; disrupted by distamycin A; conditions: tags: GST fusion from pGEX-2T, thrombin-cleaved; E. coli JM109; bacterial extracts also used; label: 32P
[3] = target: T1, UL9-COOH (C-terminal DNA-binding …); assay: EMSA; flanks have little effect on off-rate; particularly disrupted by doxorubicin; conditions: tags: GST fusion from pGEX-2T, thrombin-cleaved; E. coli JM109; bacterial extracts also used; label: 32P
[4] = target: T1, UL9-COOH (C-terminal DNA-binding …); assay: EMSA; flanks have little effect on off-rate; disrupted by actinomycin D and doxorubicin; conditions: tags: GST fusion from pGEX-2T, thrombin-cleaved; E. coli JM109; bacterial extracts also used; label: 32P
[5] = target: T1, UL9-COOH (C-terminal DNA-binding …); assay: competition; unlabelled competitor in dissociation assay; conditions: tags: GST fusion from pGEX-2T, thrombin-cleaved; E. coli JM109; bacterial extracts also used
[6] = target: T1, UL9-COOH (C-terminal DNA-binding …); assay: EMSA; flanks have little effect on off-rate; disrupted by doxorubicin; conditions: tags: GST fusion from pGEX-2T, thrombin-cleaved; E. coli JM109; bacterial extracts also used; label: 32P
[7] = target: T1, UL9-COOH (C-terminal DNA-binding …); assay: EMSA; flanks have little effect on off-rate; filter binding same; disrupted by actinomycin D; conditions: tags: GST fusion from pGEX-2T, thrombin-cleaved; E. coli JM109; bacterial extracts also used; label: 32P
[8] = target: T1, UL9-COOH (C-terminal DNA-binding …); assay: EMSA; flanks have little effect on off-rate; disrupted by distamycin A and doxorubicin; conditions: tags: GST fusion from pGEX-2T, thrombin-cleaved; E. coli JM109; bacterial extracts also used; label: 32P

T1 sequence (P10193 535-851, one chain of several): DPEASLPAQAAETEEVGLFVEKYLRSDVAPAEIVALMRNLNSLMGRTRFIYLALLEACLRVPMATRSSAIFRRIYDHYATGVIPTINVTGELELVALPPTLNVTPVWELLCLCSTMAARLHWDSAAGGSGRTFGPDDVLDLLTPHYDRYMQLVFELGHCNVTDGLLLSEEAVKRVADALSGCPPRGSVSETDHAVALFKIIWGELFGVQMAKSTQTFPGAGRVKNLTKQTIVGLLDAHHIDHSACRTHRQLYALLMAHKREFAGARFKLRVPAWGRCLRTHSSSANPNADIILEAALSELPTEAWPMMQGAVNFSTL

B1: FIG. 5 oligo SEQ ID NO:610 (dsDNA)
DNA 1: GGACGCACGCGTTCGCACTTGCAGCAGCGG
DNA 2: CCGCTGCTGCAAGTGCGAACGCGTGCGTCC
B1: binds [1].

B2: UL9 ATAT (dsDNA)
DNA 1: GGATATATACGTTCGCACTTTAATTATTGG
DNA 2: CCAATAATTAAAGTGCGAACGTATATATCC
B2: binds [2].

B3: oriEco3 (dsDNA)
DNA 1: GGCGAATTCGATCGTTCGCACTTCGTCCCAAT
DNA 2: ATTGGGACGAAGTGCGAACGATCGAATTCGCC
B3: binds [3].

B4: UL9 GGGC (dsDNA)
DNA 1: GGCGGGCGCCGTTCGCACTTGGGCGGGCGG
DNA 2: CCGCCCGCCCAAGTGCGAACGGCGCCCGCC
B4: binds [4].

B5: 17 bp UL9 competitor (dsDNA)
DNA 1: GGTCGTTCGCACTTCGC
DNA 2: GCGAAGTGCGAACGACC
B5: binds [5].

B6: oriEco2 (dsDNA)
DNA 1: GGCGAATTCGACGTTCGCACTTCGTCCCAAT
DNA 2: ATTGGGACGAAGTGCGAACGTCGAATTCGCC
B6: binds [6].

B7: UL9 CCCG (dsDNA)
DNA 1: GGCCCGCCCCGTTCGCACTTCCCGCCCCGG
DNA 2: CCGGGGCGGGAAGTGCGAACGGGGCGGGCC
B7: binds [7].

B8: ATori1 (dsDNA)
DNA 1: GCGTATATATCGTTCGCACTTCGTCCCAAT
DNA 2: ATTGGGACGAAGTGCGAACGATATATACGC
B8: binds [1].

B9: UL9 polyT (dsDNA)
DNA 1: GGTTTTTTTCGTTCGCACTTTTTTTTTTGG
DNA 2: CCAAAAAAAAAAGTGCGAACGAAAAAAACC
B9: binds [8].

B10: UL9 polyA (dsDNA)
DNA 1: GGAAAAAAACGTTCGCACTTAAAAAAAAGG
DNA 2: CCTTTTTTTTAAGTGCGAACGTTTTTTTCC
B10: binds [2].
